# Source: patent US20230133118A1, “COMPOSITIONS AND METHODS FOR TREATING CANCER” (Adagene AG, priority 2020, published 2023)
# Read-outs that look alike come from different tables or passages of the source.
# [1] = G3, cols c1,3,5,7,9,11,13=0.03,0.1,0.3,1,3,5,10 mg/kg, c15 overall N=20
# [2] = G4, cols c2,4,6,8,10,12,14=0.03,0.1,0.3,1,3,5,10 mg/kg, c16 overall N=20
# [3] = G4, cols c2,4,6,8,10,12,14=0.03,0.1,0.3,1,3,5,10 mg/kg, last col overall N=20
# Description: The phase 1a dose escalation study in US (ClinicalTrials.gov Identifier: NCT03707093) included accelerated titration (0.03, 0.1 and 0.3 mg/kg) and conventional dose escalation (1, 3, and 10 mg/kg). The phase 1a dose escalation study in China (ClinicalTrials.gov Identifier: NCT03802955) included accelerated titration (0.1 mg/kg) and conventional dose escalation (0.5, 1.5, 3, 5, and 10 mg/kg). […] Patients with advanced or metastatic solid tumors and/or non-Hodgkin lymphoma who were refractory or relapsed and exhausted all available therapies were enrolled and received treatment until disease progression, intolerable toxicity, withdrawal with consent, or for a maximum of 24 months.
# Dose expansion studies were conducted for dose levels that were proven tolerable in Phase 1a and with evidence of clinical or biological activity. The dose levels studied in Phase 1 b were 3 mg/kg and 5 mg/kg.
substance,measurement,setting,value
"ADG106: fully human agonistic anti-CD137 monoclonal IgG4 antibody; heavy chain SEQ ID NO: 10, light chain SEQ ID NO: 11",TEAE white blood cell count increase,"China update, 57 patients",21%
same,patients with G3 to 4 TEAEs,"China update, 21 patients",35%
same,SAEs (all causes),"China update, in 11 patients",15
same,"Lab abnormality Leukocyte ↓, patients",[1],0
same,"Lab abnormality Neutrophil ↓, patients",[1],0
same,"Lab abnormality Platelet ↓, patients",[1],0
same,"TEAE Arthralgia, patients",[1],0
same,"TEAE Constipation, patients",[1],0
same,"TEAE Cough, patients",[1],0
same,"TEAE Dehydration, patients",[1],0
same,"TEAE Fever, patients",[1],0
same,"TEAE Hypothyroidism, patients",[1],0
same,"TEAE Myalgia, patients",[1],0
same,"TEAE Peripheral edema, patients",[1],0
same,"TEAE Weight ↓, patients",[1],0
same,"Lab abnormality Hemoglobin ↓, patients",[2],0
same,"Lab abnormality Leukocyte ↓, patients",[2],0
same,"Lab abnormality Neutrophil ↓, patients",[2],0
same,"Lab abnormality Platelet ↓, patients",[2],0
same,"TEAE (preferred term not given), patients",[3],0
same,"TEAE AST increase, patients",[3],0
same,"TEAE Anemia, patients",[3],0
same,"TEAE Appetite ↓, patients",[3],0
same,"TEAE Arthralgia, patients",[3],0
same,"TEAE Constipation, patients",[3],0
same,"TEAE Cough, patients",[3],0
same,"TEAE Dehydration, patients",[3],0
same,"TEAE Diarrhea, patients",[3],0
same,"TEAE Dyspnea, patients",[3],0
same,"TEAE Fever, patients",[3],0
same,"TEAE Hypothyroidism, patients",[3],0
same,"TEAE Lymphopenia, patients",[3],0
same,"TEAE Myalgia, patients",[3],0
same,"TEAE Peripheral edema, patients",[3],0
same,"TEAE Respiratory failure, patients",[3],0
same,"TEAE Tumor pain, patients",[3],0
same,"TEAE Vomiting, patients",[3],0
same,"TEAE Weight ↓, patients",[3],0
same,>=G3 adverse events,Overall N=40,15 n (%)
same,Any Drug Related TEAEs,Overall N=40,26 n (%)
same,Any SAE,Overall N=40,10 n (%)
same,Any TEAEs Leading to Study Drug Discontinuation,Overall N=40,5 n (%)
same,Any TEAEs leading to Study Drug Dose Reduction or Interruption,Overall N=40,1 n (%)
same,Any TEAEs with Outcome of Death,Overall N=40,2 n (%)
same,Drug Related SAE,Overall N=40,4 n (%)
same,SAE leading to Drug discontinuation,Overall N=40,3 n (%)
same,Any DLTs,"Overall N=40, first 2 cycles",3 n (%)
same,≥Grade 4 TEAEs,Table 6 population,there was no≥Grade 4 TEAEs
same,dose below which ≥G3 treatment related AEs were not observed,US and China trials,less than 3 mg/kg
same,total dose at which ADG106 was well tolerated,US and China trials,below 500 mg
same,"dose at which DLT occurs, by body weight",US and Chinese patients,around 10 mg/kg
same,total dose at which DLT occurs,US and Chinese patients,~500 mg
same,tolerability of flat Q3W IV dose of 300 mg and 400 mg,US trial,safe and well tolerated
same,G3 ALP increase,US update,2/35
same,G3 GGT increase,US update,3/35
same,"G3 or G4 decreases of leukocytes, platelets, and neutrophils",US update,There was no G3 or G4 decreases
same,G4 drug-related TEAEs,US update,there was no G4 drug-related TEAEs
same,Grade 3 AE anemia,US update,2/35
same,Grade 3 AE decreased appetite,US update,2/35
same,Grade 3 AE dyspnea,US update,2/35
same,Grade 3 AE fatigue,US update,5/35
same,Grade 3 AE tumor pain,US update,1/35
same,Grade 3 AE vomiting,US update,1/35
same,Grade 3 drug-related TEAE AST increase,US update,1/35
same,Grade 3 drug-related TEAE adrenal insufficiency,US update,1/35
same,Grade 3 drug-related TEAE anemia,US update,1/35
same,Grade 3 drug-related TEAE decreased appetite,US update,1/35
same,Grade 3 drug-related TEAE dyspnea,US update,1/35
same,Grade 3 drug-related TEAE fatigue,US update,3/35
same,Grade 3 drug-related TEAE influenza like symptoms,US update,1/35
same,DLTs observed,"US update Nov. 30, 2020, 7 dose escalation cohorts 0.03-10 mg/kg Q3W",2
same,"AE anemia, regardless of causality","US update, 35 patients",11%
same,"AE arthralgia, regardless of causality","US update, 35 patients",14%
same,"AE decreased appetite, regardless of causality","US update, 35 patients",20%
same,"AE dehydration, regardless of causality","US update, 35 patients",14%
same,"AE dizziness, regardless of causality","US update, 35 patients",11%
same,"AE dyspnea, regardless of causality","US update, 35 patients",11%
same,"AE fatigue, regardless of causality","US update, 35 patients",29%
same,"AE nausea, regardless of causality","US update, 35 patients",23%
same,"AE peripheral edema, regardless of causality","US update, 35 patients",14%
same,"AE tumor pain, regardless of causality","US update, 35 patients",11%
same,"AE vomiting, regardless of causality","US update, 35 patients",14%
same,"ALT increased, all grade","US update, 35 patients",23%
same,"AST increased, all grades","US update, 35 patients",43%
same,"albumin decreased, all grade","US update, 35 patients",57%
same,"hemoglobin decrease, all grades","US update, 35 patients",89%
same,"lymphocytes decrease, all grades","US update, 35 patients",57%
same,patients discontinued due to adverse events,"US update, 35 patients",9%
same,total bilirubin increased,"US update, 35 patients",6%
same,SAEs related to the study treatment,"US update, in 3 patients",4
same,SAEs (all causes),"US update, in 13 patients",17
same,"TEAE anemia, regardless of causality",most common TEAEs (≥10%),10%
same,"TEAE arthralgia, regardless of causality",most common TEAEs (≥10%),10%
same,"TEAE decreased appetite, regardless of causality",most common TEAEs (≥10%),10%
same,"TEAE dyspnea, regardless of causality",most common TEAEs (≥10%),10%
same,"TEAE lymphopenia, regardless of causality",most common TEAEs (≥10%),15%
same,"TEAE respiratory failure, regardless of causality",most common TEAEs (≥10%),10%
same,drug related death,up to 10 mg/kg,no drug related death
